The values that follow come from paper PMC8125234, “Cardiolipin Stabilizes and Increases Catalytic Efficiency of Carnitine Palmitoyltransferase II and Its Variants S113L, P50H, and Y479F” (International Journal of Molecular Sciences, 2021).

Several values for one entry are separate records, joined by “and”; a condition that tells them apart may be missing. Identical values can stand only once.

Substrate in series [1]: C[N+](C)(C)C[C@H](O)CC(=O)[O-]
Kind of series: Determination of the kinetic parameters kcat and KM. It counts as biochemical, human. The settings on record: L-carnitine varied, absence of CL, 25 °C. As to the method: Before activity measurements, the storage buffer of the enzymes was replaced with assay buffer (50 mM KH2PO4, 120 mM KCl, 1 mM EDTA-Na4) using vivaspin turbo 4 tubes (Satorius Stedim biotech GmbH, Göttingen, Germany) at 4 °C. The pH of assay buffer was adjusted with KOH to 7.4. The storage buffer was diluted at least 1:500 in assay buffer. In addition, before each experimental set up, the protein samples were centrifuged at 16,000× g for 5 min at 4 °C to remove any micro-aggregates. After that, the protein concentration was determined using bicinchoninic acid (BCA) protein assay kit (Thermo Fisher Scientific GmbH, Berlin, Germany). The enzyme activity of recombinant CPT II was performed following Rufer et al. with modifications described elsewhere. […] After pre-conditioning the mixture to 25 °C for 2 min, the reaction was started by adding 15 nM of recombinant enzyme. The reverse reaction of CPT II was detected with the enzyme activity assay. CPT II catalyzed the transfer of fatty acid residue from Pal-CoA to L-carnitine with release of CoA and Pal-carnitine. The released CoA was then detected by the reaction of the free thiol group with DTNB, forming 5-mercapto-(2-nitrobenzoic acid). This compound has a molar extinction coefficient of 13,600 M^−1 cm^−1 at a wavelength of 410 nm, and its formation was followed spectroscopically. […] The slope of the progress curve was used to determine the reaction velocity.
It is assumed that the reaction catalyzed by CPT II represents a ping-pong mechanism or compulsory order ternary-complex mechanism.
The kinetic parameters were determined by evaluating the obtained v/S characteristic according to the Michaelis–Menten Equation (1). The […] kcat was calculated using Equation (2):(1) v=Vmax∗[S]/KM+[S] (2) kcat=Vmax/cenzyme

The nature of series [2]: Onset of aggregation by scattered light back reflection during heating ramp. Particulars: assay buffer; heating ramp 15 °C to 80 °C. In kind it is physicochemical. As to the method: Supplementary materials can be found at https://www.mdpi.com/article/10.3390/ijms22094831/s1, Figure S1: Scattered light back reflection as measure for aggregation during the heating ramp from 15 °C to 80 °C of CPT II WT (black) and the variants P50H (red), S113L (blue) and Y479F (green) in assay buffer (magenta). The light scattering data were obtained simultaneously with nanoDSF data using the back reflection technology in a Prometheus NT.48 device. The unfolding of proteins leads to display of hydrophobic regions of the protein on the surface, which is followed by hydrophobic interaction of the protein molecules resulting in aggregation events. These aggregates are then detected via light scattering. […] The data allow the detection of onset of aggregation (Tagg) which differs clearly among the variants. The Tagg for WT is 38 °C, Y479F is 37 °C, S113L is 35 °C and P50H is 32 °C. […] Figure S2: The first derivatives of the transition curves of WT and the variants resulting from the ratio 350/330 nm were plotted against the temperature. The black, red, blue and green solid lines show the curves of WT and variants P50H, S113L and Y479F measured in assay buffer, respectively. The black, red, blue and green dashed lines show the maxima of the values of the first derivatives of the ratio 350 nm/330 nm of WT and variants P50H, S113L and Y479F, respectively. Figure S3: The effect of amino acid exchange in absence and presence of n-octyl-β-d-glucopyranoside (β-OG) on the stability of CPT II (1 mg/mL) assessed by nanoDSF. The TM of WT (37 °C) in buffer was used as reference value (ΔTM = 0 °C) to determine the ΔTM for the variants and the ΔTM for WT and variants in presence of β- OG. Error bars are SD derived from three independent experiments. Table S1. Comparison of the mean values of the half-lives (t1/2) of CPT II WT and the variants at 30 °C with the half-lives at 37, 40 or 42 °C. The differences of the half-lives for each CPT II enzyme between 37 and 40 or 42 °C as well as 40 and 42 °C are not significant. Number of experiments for each variant (n ≥ 3). Table S2. Comparison of the mean values of the half-lives (t1/2) between CPT II WT and the variants Y479F, S113L and P50H at 30, 37, 40 or 42 °C. n ≥ 3. Table S3. […] Comparison of the ∆TM-values of CPT II WT and the variants Y479F, S113L and P50H in buffer or in presence of 0.25 mM cardiolipin or 1% n-octyl-β-d-glucopyranoside (β-OG) assessed by nanoDSF (n ≥ 3). […] Comparison of the transition temperatures (TM) of WT and the variants Y479F, S113L and P50H in buffer with of 0.25 mM cardiolipin or 1% n-octyl-β-d-glucopyranoside (β-OG) assessed by nanoDSF (n ≥ 3). […]

Series [3] can be described thus: nanoDSF thermostability of recombinant CPT II enzymes in assay buffer. In kind it is physicochemical. Particulars: for TM in Buffer: assay buffer, 1 mg/mL protein, nanoDSF; for ∆TM in Buffer: reference TM of WT in buffer (ΔTM = 0 °C). As to the method:
The protein stability was investigated applying nano differential scanning fluorimetry (nanoDSF) using a protein concentration of 1 mg/mL in assay buffer. […] The heating rate has been set to 1 °C per min. A heating ramp from 15 to 95 °C was determined. The nanoDSF data were obtained using a Prometheus NT.48 device. First derivatives were calculated using PR.ThermControl software (NanoTemper Technologies GmbH, Munich, Germany). Experiments were performed at least three times independently as double determination.

B1: CPT II WT (Homo sapiens) (protein)
chain: SAGSGPGQYLQRSIVPTMHYQDSLPRLPIPKLEDTIRRYLSAQKPLLNDGQFRKTEQFCKSFENGIGKELHEQLVALDKQNKHTSYISGPWFDMYLSARDSVVLNFNPFMAFNPDPKSEYNDQLTRATNMTVSAIRFLKTLRAGLLEPEVFHLNPAKSDTITFKRLIRFVPSSLSWYGAYLVNAYPLDMSQYFRLFNSTRLPKPSRDELFTDDKARHLLVLRKGNFYIFDVLDQDGNIVSPSEIQAHLKYILSDSSPAPEFPLAYLTSENRDIWAELRQKLMSSGNEESLRKVDSAVFCLCLDDFPIKDLVHLSHNMLHGDGTNRWFDKSFNLIIAKDGSTAVHFEHSWGDGVAVLRFFNEVFKDSTQTPAVTPQSQPATTDSTVTVQKLNFELTDALKTGITAAKEKFDATMKTLTIDCVQFQRGGKEFLKKQKLSPDAVAQLAFQMAFLRQYGQTVATYESCSTAAFKHGRTETIRPASVYTKRCSEAFVREPSRHSAGELQQMMVECSKYHGQLTKEAAMGQGFDRHLFALRHLAAAKGIILPELYLDPAYGQINHNVLSTSTLSSPAVNLGGFAPVVSDGFGVGYAVHDNWIGCNVSSYPGRNAREFLQCVEKALEDMFDALEGKSIKS
notes: made in house; host or cells: Escherichia coli BL21Gold DE
B1: in series [1] (other: WT), the Km was 15.1 ± 3.4 mM, the kcat was 149 ± 11.1 s⁻¹ and the kcat/Km came to 9800 ± 1600 M⁻¹ s⁻¹. The “Onset of aggregation (Tagg)” value in series [2] came out at 38 °C. Besides, in series [3], the “TM in Buffer” value was 36.9 ± 1.0 °C and 37 °C; the “∆TM in Buffer” value was 0.0 ± 1.0 °C.

B2: CPT II variant Y479F (Homo sapiens; Y479F) (protein)
chain: SAGSGPGQYLQRSIVPTMHYQDSLPRLPIPKLEDTIRRYLSAQKPLLNDGQFRKTEQFCKSFENGIGKELHEQLVALDKQNKHTSYISGPWFDMYLSARDSVVLNFNPFMAFNPDPKSEYNDQLTRATNMTVSAIRFLKTLRAGLLEPEVFHLNPAKSDTITFKRLIRFVPSSLSWYGAYLVNAYPLDMSQYFRLFNSTRLPKPSRDELFTDDKARHLLVLRKGNFYIFDVLDQDGNIVSPSEIQAHLKYILSDSSPAPEFPLAYLTSENRDIWAELRQKLMSSGNEESLRKVDSAVFCLCLDDFPIKDLVHLSHNMLHGDGTNRWFDKSFNLIIAKDGSTAVHFEHSWGDGVAVLRFFNEVFKDSTQTPAVTPQSQPATTDSTVTVQKLNFELTDALKTGITAAKEKFDATMKTLTIDCVQFQRGGKEFLKKQKLSPDAVAQLAFQMAFLRQFGQTVATYESCSTAAFKHGRTETIRPASVYTKRCSEAFVREPSRHSAGELQQMMVECSKYHGQLTKEAAMGQGFDRHLFALRHLAAAKGIILPELYLDPAYGQINHNVLSTSTLSSPAVNLGGFAPVVSDGFGVGYAVHDNWIGCNVSSYPGRNAREFLQCVEKALEDMFDALEGKSIKS
notes: as for B1
B2: in series [1] (other: Y479F), the Km came to 17.4 ± 4.4 mM, the kcat came out at 140 ± 18.5 s⁻¹ and the kcat/Km worked out at 8100 ± 1100 M⁻¹ s⁻¹. Also, the “Onset of aggregation (Tagg)” value in series [2] was determined as 37 °C. Also, in series [3], the “TM in Buffer” value came to 36.2 ± 1.2 °C and the “∆TM in Buffer” value is -0.74 ± 1.2 °C.

B3: CPT II variant S113L (Homo sapiens; S113L) (protein)
chain: SAGSGPGQYLQRSIVPTMHYQDSLPRLPIPKLEDTIRRYLSAQKPLLNDGQFRKTEQFCKSFENGIGKELHEQLVALDKQNKHTSYILGPWFDMYLSARDSVVLNFNPFMAFNPDPKSEYNDQLTRATNMTVSAIRFLKTLRAGLLEPEVFHLNPAKSDTITFKRLIRFVPSSLSWYGAYLVNAYPLDMSQYFRLFNSTRLPKPSRDELFTDDKARHLLVLRKGNFYIFDVLDQDGNIVSPSEIQAHLKYILSDSSPAPEFPLAYLTSENRDIWAELRQKLMSSGNEESLRKVDSAVFCLCLDDFPIKDLVHLSHNMLHGDGTNRWFDKSFNLIIAKDGSTAVHFEHSWGDGVAVLRFFNEVFKDSTQTPAVTPQSQPATTDSTVTVQKLNFELTDALKTGITAAKEKFDATMKTLTIDCVQFQRGGKEFLKKQKLSPDAVAQLAFQMAFLRQYGQTVATYESCSTAAFKHGRTETIRPASVYTKRCSEAFVREPSRHSAGELQQMMVECSKYHGQLTKEAAMGQGFDRHLFALRHLAAAKGIILPELYLDPAYGQINHNVLSTSTLSSPAVNLGGFAPVVSDGFGVGYAVHDNWIGCNVSSYPGRNAREFLQCVEKALEDMFDALEGKSIKS
notes: as for B1
As to B3, in series [1] (other: S113L), the Km was 15.5 ± 2.3 mM, the kcat amounted to 144 ± 5 s⁻¹ and the kcat/Km stood at 9300 ± 1400 M⁻¹ s⁻¹. Moreover, in series [2], the “Onset of aggregation (Tagg)” value amounted to 35 °C. For the same molecule, in series [3], the “∆TM in Buffer” value is -3.1 ± 0.7 °C.
